Here are results for 5 molecules from patent US20140087995A1 (published 2014).

Numbered stars: 1 amine (or outer) side, 2 acyl side, 3 side chain; on linkers, the order of the positions; unused ones are H or OH. Bridge positions count the residues as written; N and C are the ends. Side chains are listed from the residue outwards. Ends that are not written are not given here. * marks the point of attachment. C20 diacid = O=C(O)CCCCCCCCCCCCCCCCCCC(=O)*; γGlu = O=C(O)[C@H](CCC(=O)[*:2])N[*:1]; AEEA = NCCOCCOCC(=O)O

Experiment [1] deals with T1, rat calcitonin receptor (rat, UniProt P32214 25-516).
T1 construct: whole, on cells; Membranes of BHK tk'ts 13 cells transiently transfected with the rat calcitonin receptor; also called rCTR; rat calcitonin (a) receptor
T1 sequence (looked up): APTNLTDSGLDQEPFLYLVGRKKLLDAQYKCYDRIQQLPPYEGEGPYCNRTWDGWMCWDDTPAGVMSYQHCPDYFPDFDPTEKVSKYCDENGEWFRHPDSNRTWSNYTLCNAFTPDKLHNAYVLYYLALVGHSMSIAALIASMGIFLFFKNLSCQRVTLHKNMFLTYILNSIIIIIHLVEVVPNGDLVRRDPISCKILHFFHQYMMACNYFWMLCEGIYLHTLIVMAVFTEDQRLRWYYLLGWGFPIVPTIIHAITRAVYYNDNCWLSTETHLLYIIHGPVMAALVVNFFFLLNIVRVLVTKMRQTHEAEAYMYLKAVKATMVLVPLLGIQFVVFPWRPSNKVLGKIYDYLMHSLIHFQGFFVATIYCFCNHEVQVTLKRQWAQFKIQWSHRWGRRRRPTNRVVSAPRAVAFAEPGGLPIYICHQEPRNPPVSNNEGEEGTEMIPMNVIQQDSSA
In words: IC50 at rCTR divided by IC50 at rAmylin-R (reference).

In experiment [2] the target is T2, human calcitonin receptor (human, UniProt P30988 25-474).
T2 construct: whole, on cells; Membranes of a BHK tk'ts 13 cell line stably transfected with the human calcitonin receptor; also called hCTR; hCT
T2 sequence (looked up): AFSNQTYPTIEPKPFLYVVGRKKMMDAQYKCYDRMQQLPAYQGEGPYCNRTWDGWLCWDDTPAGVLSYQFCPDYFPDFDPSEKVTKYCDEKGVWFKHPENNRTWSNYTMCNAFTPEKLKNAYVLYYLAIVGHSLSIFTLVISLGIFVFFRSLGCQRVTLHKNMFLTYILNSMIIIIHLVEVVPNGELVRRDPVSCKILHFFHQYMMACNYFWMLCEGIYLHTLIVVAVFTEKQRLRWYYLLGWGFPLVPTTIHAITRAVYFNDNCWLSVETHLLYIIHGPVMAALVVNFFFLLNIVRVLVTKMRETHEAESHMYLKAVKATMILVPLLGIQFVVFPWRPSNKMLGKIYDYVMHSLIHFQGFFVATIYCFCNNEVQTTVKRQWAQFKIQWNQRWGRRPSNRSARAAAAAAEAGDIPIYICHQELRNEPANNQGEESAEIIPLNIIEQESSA
The experiment in a line: IC50 at hCTR divided by IC50 at hAmylin-R (reference). In short, it runs like this:
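Membranes (35 ng/μL final) + SPA beads, 50 mM Hepes pH 7.4 buffer with 1 mM CaCl2, 5 mM MgCl₂, 0.1% OA, 0.02% Tween20; 120 min, 25° C, shaking; centrifuged, counted; IC₅₀ by one-site binding competition.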

Experiment [3] addresses T3, rat amylin receptor (rat calcitonin receptor + rat RAMP 3) (rat, UniProt P32214 25-516; Q9JJ73 23-147).
T3 construct: whole, on cells; Membranes of BHK tk'ts 13 cells transiently transfected with the rat calcitonin receptor and rat RAMP 3; also called rAmylin-R; rat amylin 3(a) receptor
T3 sequence (looked up) 1: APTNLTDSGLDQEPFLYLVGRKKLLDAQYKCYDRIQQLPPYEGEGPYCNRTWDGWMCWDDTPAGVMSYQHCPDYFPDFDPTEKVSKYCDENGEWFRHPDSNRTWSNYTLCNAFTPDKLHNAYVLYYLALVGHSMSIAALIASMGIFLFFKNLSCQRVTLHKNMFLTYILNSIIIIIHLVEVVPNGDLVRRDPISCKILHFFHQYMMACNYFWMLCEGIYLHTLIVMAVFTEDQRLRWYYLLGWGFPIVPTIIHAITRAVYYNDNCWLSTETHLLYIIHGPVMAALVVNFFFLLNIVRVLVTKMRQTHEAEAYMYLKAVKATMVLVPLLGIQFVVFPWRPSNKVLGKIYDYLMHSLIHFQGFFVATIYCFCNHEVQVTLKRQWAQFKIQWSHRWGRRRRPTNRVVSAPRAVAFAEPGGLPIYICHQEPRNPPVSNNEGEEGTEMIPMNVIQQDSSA
T3 sequence (looked up) 2: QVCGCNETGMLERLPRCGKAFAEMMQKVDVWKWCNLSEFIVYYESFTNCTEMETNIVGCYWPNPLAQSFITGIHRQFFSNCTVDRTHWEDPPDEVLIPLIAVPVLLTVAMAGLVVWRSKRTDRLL
In words: SPA competition vs 125I-rat amylin, membranes with rat CTR + rat RAMP3 (Assay VI).

Experiment [4] addresses T1, rat calcitonin receptor. The experiment in a line: SPA competition vs 125I-calcitonin, membranes with rat CTR (Assay VIII).

B1: N^α1-[2-[2-[2-[[2-[2-[2-[[(4S)-4-carboxy-4-(19-carboxynonadecanoylamino)butanoyl]amino]ethoxy]ethoxy]acetyl]amino]ethoxy]ethoxy]acetyl]-[Arg17,Pro21,Pro27]-h-am … (peptide)
peptide: KCNTATCATQRLANFLRHSSPNFGAIPSSTNVGSNTY
modifications: C20 diacid-gGlu-2xOEG on the alpha amino group of the N-terminal residue (Lys 1); disulfide bridge Cys2-Cys7; C-terminal amide
notes: modifications are with respect to human amylin; also called compound 24
In general, IC50 refers to the concentration needed to halve the response being measured. Take B1: the “Ratio rCT/rAmylin binding” value in experiment [1] was found to be 116. Also, in experiment [2], the “Ratio hCT/hAmylin binding” value was 90. Besides, the IC50 in experiment [3] was 3.01 nM; in experiment [4], 350 nM.

B2: N^ε1-[(4S)-4-carboxy-4-[[(4S)-4-carboxy-4-(19-carboxynonadecanoylamino)butanoyl]amino]butanoyl]-[Asp14,Arg17,Pro21,Pro27,Asp35]-h-amylin (peptide)
peptide: K([γGlu-γGlu-C20 diacid])CNTATCATQRLADFLRHSSPNFGAIPSSTNVGSDTY-NH2
modifications: disulfide 2-7; N-terminus assumed
SMILES: CC[C@H](C)[C@H](NC(=O)[C@H](C)NC(=O)CNC(=O)[C@H](Cc1ccccc1)NC(=O)[C@H](CC(N)=O)NC(=O)[C@@H]1CCCN1C(=O)[C@H](CO)NC(=O)[C@H](CO)NC(=O)[C@H](Cc1c[nH]cn1)NC(=O)[C@H](CCCNC(=N)N)NC(=O)[C@H](CC(C)C)NC(=O)[C@H](Cc1ccccc1)NC(=O)[C@H](CC(=O)O)NC(=O)[C@H](C)NC(=O)[C@H](CC(C)C)NC(=O)[C@H](CCCNC(=N)N)NC(=O)[C@H](CCC(N)=O)NC(=O)[C@@H](NC(=O)[C@H](C)NC(=O)[C@@H]1CSSC[C@H](NC(=O)[C@@H](N)CCCCNC(=O)CC[C@H](NC(=O)CC[C@H](NC(=O)CCCCCCCCCCCCCCCCCCC(=O)O)C(=O)O)C(=O)O)C(=O)N[C@@H](CC(N)=O)C(=O)N[C@@H]([C@@H](C)O)C(=O)N[C@@H](C)C(=O)N[C@@H]([C@@H](C)O)C(=O)N1)[C@@H](C)O)C(=O)N1CCC[C@H]1C(=O)N[C@@H](CO)C(=O)N[C@@H](CO)C(=O)N[C@H](C(=O)N[C@@H](CC(N)=O)C(=O)N[C@H](C(=O)NCC(=O)N[C@@H](CO)C(=O)N[C@@H](CC(=O)O)C(=O)N[C@H](C(=O)N[C@@H](Cc1ccc(O)cc1)C(N)=O)[C@@H](C)O)C(C)C)[C@@H](C)O
notes: modifications are with respect to human amylin; also called compound 2
Consider B2, for which, in experiment [1], the “Ratio rCT/rAmylin binding” value came out at 366. For the same molecule, the “Ratio hCT/hAmylin binding” value in experiment [2] worked out at 47.5. Also, the values for the IC50 in experiment [3] and in experiment [4] were 0.295 nM and 108 nM, respectively.

B3: N{Alpha-1}-[(4S)-4-carboxy-4-(19-carboxynonadecanoylamino)butanoyl]-[Glu14,Arg17,Pro21,Pro27,Lys34]-h-amylin (peptide)
peptide: {C20 diacid-γGlu}-KCNTATCATQRLAEFLRHSSPNFGAIPSSTNVGKNTY-NH2
modifications: disulfide 2-7
SMILES: CC[C@H](C)[C@H](NC(=O)[C@H](C)NC(=O)CNC(=O)[C@H](Cc1ccccc1)NC(=O)[C@H](CC(N)=O)NC(=O)[C@@H]1CCCN1C(=O)[C@H](CO)NC(=O)[C@H](CO)NC(=O)[C@H](Cc1c[nH]cn1)NC(=O)[C@H](CCCNC(=N)N)NC(=O)[C@H](CC(C)C)NC(=O)[C@H](Cc1ccccc1)NC(=O)[C@H](CCC(=O)O)NC(=O)[C@H](C)NC(=O)[C@H](CC(C)C)NC(=O)[C@H](CCCNC(=N)N)NC(=O)[C@H](CCC(N)=O)NC(=O)[C@@H](NC(=O)[C@H](C)NC(=O)[C@@H]1CSSC[C@H](NC(=O)[C@H](CCCCN)NC(=O)CC[C@H](NC(=O)CCCCCCCCCCCCCCCCCCC(=O)O)C(=O)O)C(=O)N[C@@H](CC(N)=O)C(=O)N[C@@H]([C@@H](C)O)C(=O)N[C@@H](C)C(=O)N[C@@H]([C@@H](C)O)C(=O)N1)[C@@H](C)O)C(=O)N1CCC[C@H]1C(=O)N[C@@H](CO)C(=O)N[C@@H](CO)C(=O)N[C@H](C(=O)N[C@@H](CC(N)=O)C(=O)N[C@H](C(=O)NCC(=O)N[C@@H](CCCCN)C(=O)N[C@@H](CC(N)=O)C(=O)N[C@H](C(=O)N[C@@H](Cc1ccc(O)cc1)C(N)=O)[C@@H](C)O)C(C)C)[C@@H](C)O
notes: modifications are with respect to human amylin; also called compound 36
Consider B3, for which, in experiment [1], the “Ratio rCT/rAmylin binding” value was determined as 32.4. Also, the “Ratio hCT/hAmylin binding” value in experiment [2] came out at 15.7. The IC50 in experiment [3] is 1.86 nM; in experiment [4] it was 60.1 nM.

B4: N^ε1-[(4S)-4-carboxy-4-[[(4S)-4-carboxy-4-(19-carboxynonadecanoylamino)butanoyl]amino]butanoyl]-[Asp14,Arg17,Pro22,Pro26,Asp35]-h-amylin (peptide)
peptide: K([γGlu-γGlu-C20 diacid])CNTATCATQRLADFLRHSSNPFGAPLSSTNVGSDTY-NH2
modifications: disulfide 2-7; N-terminus assumed
SMILES: CC(C)C[C@H](NC(=O)[C@H](CCCNC(=N)N)NC(=O)[C@H](CCC(N)=O)NC(=O)[C@@H](NC(=O)[C@H](C)NC(=O)[C@@H]1CSSC[C@H](NC(=O)[C@@H](N)CCCCNC(=O)CC[C@H](NC(=O)CC[C@H](NC(=O)CCCCCCCCCCCCCCCCCCC(=O)O)C(=O)O)C(=O)O)C(=O)N[C@@H](CC(N)=O)C(=O)N[C@@H]([C@@H](C)O)C(=O)N[C@@H](C)C(=O)N[C@@H]([C@@H](C)O)C(=O)N1)[C@@H](C)O)C(=O)N[C@@H](C)C(=O)N[C@@H](CC(=O)O)C(=O)N[C@@H](Cc1ccccc1)C(=O)N[C@@H](CC(C)C)C(=O)N[C@@H](CCCNC(=N)N)C(=O)N[C@@H](Cc1c[nH]cn1)C(=O)N[C@@H](CO)C(=O)N[C@@H](CO)C(=O)N[C@@H](CC(N)=O)C(=O)N1CCC[C@H]1C(=O)N[C@@H](Cc1ccccc1)C(=O)NCC(=O)N[C@@H](C)C(=O)N1CCC[C@H]1C(=O)N[C@@H](CC(C)C)C(=O)N[C@@H](CO)C(=O)N[C@@H](CO)C(=O)N[C@H](C(=O)N[C@@H](CC(N)=O)C(=O)N[C@H](C(=O)NCC(=O)N[C@@H](CO)C(=O)N[C@@H](CC(=O)O)C(=O)N[C@H](C(=O)N[C@@H](Cc1ccc(O)cc1)C(N)=O)[C@@H](C)O)C(C)C)[C@@H](C)O
notes: modifications are with respect to human amylin; also called compound 3
In the case of B4, in experiment [1], the “Ratio rCT/rAmylin binding” value came out at 16.7. Besides, the “Ratio hCT/hAmylin binding” value in experiment [2] was determined as 17.3. Besides, the IC50 in experiment [3] amounted to 1 nM; in experiment [4] it was 16.7 nM.

B5: N^ε1-[2-[2-[2-[[(4S)-4-carboxy-4-(19-carboxynonadecanoylamino)butanoyl]amino]ethoxy]ethoxy]acetyl]-[Arg17,Pro21,Pro27]-h-amylin (peptide)
peptide: K([AEEA-γGlu-C20 diacid])CNTATCATQRLANFLRHSSPNFGAIPSSTNVGSNTY-NH2
modifications: disulfide 2-7; N-terminus assumed
SMILES: CC[C@H](C)[C@H](NC(=O)[C@H](C)NC(=O)CNC(=O)[C@H](Cc1ccccc1)NC(=O)[C@H](CC(N)=O)NC(=O)[C@@H]1CCCN1C(=O)[C@H](CO)NC(=O)[C@H](CO)NC(=O)[C@H](Cc1c[nH]cn1)NC(=O)[C@H](CCCNC(=N)N)NC(=O)[C@H](CC(C)C)NC(=O)[C@H](Cc1ccccc1)NC(=O)[C@H](CC(N)=O)NC(=O)[C@H](C)NC(=O)[C@H](CC(C)C)NC(=O)[C@H](CCCNC(=N)N)NC(=O)[C@H](CCC(N)=O)NC(=O)[C@@H](NC(=O)[C@H](C)NC(=O)[C@@H]1CSSC[C@H](NC(=O)[C@@H](N)CCCCNC(=O)COCCOCCNC(=O)CC[C@H](NC(=O)CCCCCCCCCCCCCCCCCCC(=O)O)C(=O)O)C(=O)N[C@@H](CC(N)=O)C(=O)N[C@@H]([C@@H](C)O)C(=O)N[C@@H](C)C(=O)N[C@@H]([C@@H](C)O)C(=O)N1)[C@@H](C)O)C(=O)N1CCC[C@H]1C(=O)N[C@@H](CO)C(=O)N[C@@H](CO)C(=O)N[C@H](C(=O)N[C@@H](CC(N)=O)C(=O)N[C@H](C(=O)NCC(=O)N[C@@H](CO)C(=O)N[C@@H](CC(N)=O)C(=O)N[C@H](C(=O)N[C@@H](Cc1ccc(O)cc1)C(N)=O)[C@@H](C)O)C(C)C)[C@@H](C)O
notes: modifications are with respect to human amylin; also called compound 41
Consider B5, for which the “Ratio rCT/rAmylin binding” value in experiment [1] was 54. In addition, the “Ratio hCT/hAmylin binding” value in experiment [2] amounted to 49.9. Further, the IC50 in experiment [3] is 1.37 nM; in experiment [4] it was 74.1 nM.
